Test results reported in the NTF2 design screens of Basanta et al. (2020).

Experiment: protease stability score; higher = more stable; yeast display proteolysis, trypsin and chymotrypsin;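 further: relative to predicted unfolded state with 0 unfolded-like and 1 meaning tenfold more protease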

| Sequence | protease stability score |
| --- | --- |
| SHEEELEEKIARILLEAWITGDEEFLFRLADPNVKLDIKYGDKRHIHIGREELLKWYRHELERFKNMKIVLHDRHIQGEKVHLHLVMHFNGQRIDVRIEVIIINGRIKHIHIEVDEK | 2.6 |
| DEHEEDMERFLRELLDHWRTGDEDVIRELMDPHVKVDINGKIHHGREEAVHFLIEMRFRHFHVHDLRVQGEKADVDGRTHMEYNGRTVDQRITIHLVKIDGKWREKSITLE | 1.24 |
| HEEEELLERAMKELEHILRTGDWELHEKNADPHVKLDVNGRIVHGRELVITVLRRLFEELGVDHIHLHDFKVVGDKMHIDLRIHVGDKEFQLEIIIIKIDGRWHIHSERFN | 0.363 |
| SEDEHSFKMAIDLWEEVSRTGDEKDLRELIDPHVRVEYGDKHHVGWDRFIKVFHEIRFHHIKVRDHRIIGDKLHMNIEVHGEYNGQRVTIETHVVMRKIDGRWFTETMQID | 1.22 |
| HQDDDELKHFLELFIEQHETGDEHRLRKMADPRTRVEINGQEIHGMDQLVRHWLEFRKRMGVDHTHVILEHFHFQGDKVSARLRLIFIVGDKTFETDMNVIVVKVDGKWLIHEVSTR | 1.22 |
| TDERDRYKHFLHLFRHLIKTGDEDVLANNADPHVKFHIHIGDKEREHHGMESMVKIFKEWRIHHLHIESFDVQGDKLIALVHVDGIINGRHHSTTVNIILTFVNGREKEVNIHLT | 1.74 |
| SEDEIARHILHKMMTGDEDSFEELLDPNARLIVGNKHSHGRERVIEDWKRDLELAGFKHSEVKRIHFQGEKSHVHGHINVNGKEYRVLFILVIVNGRLKEVELHVTDEREEKYLHRTWE | 0.007 |
| HSDEEKSRRATKWFIKIFHTGDEDRFHELADPNTRVIIGDKDFIGREKAVDAIHRIWEHLGIDVYDVEDIRIINGVVEVDTSFHINGRTIKTTTRIEKVNGQWVVDEVHFK | 1.23 |
| DELTNEHERYLHFLWEMIKTGDEENLENLVDPHARLEFENREFHGREDVRKWLVEIRFHRVHLRRMEVQGNKVILDTELDGEFNGQRVRHTTKTHALKVNGQWLLHELIIK | 1.25 |
| DEIEHHDRIIHHLTLHAFFTGDESITEHLADPDVRLDIVQGDKFNHVIGREMVVQWLEEWWRRVKNARFRVHRVEVINGQVNLRVEVDINGKRVDFTLIIIVIDGKIRSQEVIFH | 1.67 |
| SDEQEISEFILRIWLELVLTGDEKMMKKLFDPNTRFEINGVDIHGMESIAEHLLREREEWRSHITLTDREIQGDKVRVHTILKVDINGQHLRHHTRIIIIIINGRIHSIHIRVE | 0.673 |
| HEEDKWMKEVLYRFYEHYQTGDEDSLVKLMDPHAKLSFEGRENHGRDAIKTYWDIMGFDHLRLRDYEIRIIDGRAHLIVDTEIEIGDKRRRTIIIMHVLKFNGRWIVTHFHVEVR | 0.835 |
| DEEEERLEELSKLLLEMVLTGNWDETLELADPHALIEIGDKRFHGWEHWVKLYLRIKNVRFELRIDSVRPIGDKAEIDGHVIIRIGDKEKEFDLRVEIDVVDGRLKENSIRRR | 1.35 |
| DEDTHDNRHALELLLRFLETGDEDSLRELADPNARLSVNGRNQHGREDLFSTWSEMGVDHMEIKSHRIVDGRLLLHGHIKFNGRREDVHIFMVKIDGRWYIEEVKIL | 1.56 |
| DEREEIIRKALELFIFSMKTGDEHTLTELLDPNVRLLVGDKEFHGREVFHILIQQFKNIRVEHFEHKDWYEQGDKMRITGRLTFRQGDKRTEIDTTLIILKINGRWIMHDIVIS | 2.17 |
| DEDERTFRTAITLLLRDMHTGDEESFEKMVDPRTRLRYNGKELHGRDAYEFSLEELGVKHIEFKDMRVQGDFIWLEGTVNVNGKKIKLILIILKVDGKWIIHSIHLH | 0.799 |
| SEHEEELHKFFEEFLKAVETGDWRRLMELIDPHARLHIHQGEKEDHDHGRKFLKEFLKRYPNLRIQVTSLRIDVIDGVAIIILRGHDDVNGVELHSTIRIVVTKVNGQWRVEEVEIRIR | 1.38 |
| DEEHKEREDVAREIITLLLTGDEEIWLSMMDPHTRININGKYAIGRENIEEIIKDLLRRIPNIRIIMQDMKIQGDKVTIHGIHNVNGREHEWRVHIISVNGRIKSIEVRIH | 1.47 |
| SELDTLVEEVAEIIVKYLITGDEDSLLKMLDPNMRTDINGREIHGREVTHEFLRQEKERLGVSRIQMRLESFRVQGDKIIIHGTLHYNGKDFEVIVIIIVWNGRIREIRIEIR | 1.4 |
| DEKDRISKKIVELWMRALITGDEEEMDRMADPDVRIKYGDKVSHGMEEARETWEHIRWRDIRLDHVDSYNGRIRIDGTVHIEINGREDTTRVEIILHVIDGRIKEIRVIIR | 1.3 |
| SEREELVRYAIELMEEVMRTGDERLIESMADPNTRVVVNGVELHGRNHLLRVWSEWRTRDMREREVHVYDGRIEMHGTSDITIGDKHVITDTRHIAEKVDGRWILRSVEFR | 0.405 |
| DKVEDDLREFARLFVEYMETGDEDKVSKLMDPSMRIEIHINGKDIKYHGREELNRWRSEEMKRVDHEKWHHKHIRVIGDKVDIDFRRVEHVGDKHLVFQVHIELFVINGKLHTVIIRIE | 1.53 |
| SEDEELAESFSRLFFEAEETGDEESLLEMADPNVRVHIDGREIHGREEWIKHLRTFGVERIRIHMRHVEIQGDKLRLDLIVHQGDKTVRIEITIKKVDGRWVVHSIHWS | 0.868 |
| SEEHEKLHHLMELMLNAITTGDWEIIEHLADPNVRIDQGEWHDHGREKLIHIHELVRERMGIKHVEVRDSRMFHINGVVVIILRLDLNVNGKHRFEILRLQFRKVDGQWVMHSLDIELR | 1.74 |
| DETERLAEKWYRHWLHLILTGDWELLEKQADPHYKFHVGDKVFIGRELASEWLRHLYEHIRIDDMKITHLDLQGDKINNDGRMRVTQGEKHKEVSVDLHMIVVNGKMHEIRIRTH | 1.45 |

| Sequence | protease stability score |
| --- | --- |
| DEVQRDAEEFWRLLVEALVTGDEDLWRKLADPHMRLDVNGVEIHGMEHYLKRIIEEMRRLGVELKDFRLHDVDIQGNKMHLKTHIDGRVNGQKNTRREEYVITKIDGRWQLESIKVH | 2.04 |
| SEEREKAERISRTLFFNFFTGDEDDWNKRADPTDRFIIGDKELVGMEEISKFLKHLRVHHEQLSDLRINLQGDKLHSHLDGYVDIEFNGRRRRTRVIIIIVVFKVNGRWTIEQFEVEFH | 1.73 |
| DEEEHNSQYAEELHIHLQETGDFEEFKKNVDPHVRLHSEINGKELRLHGRKIAEWLIEFWIKRIPNATIELHDSSIYNGKMHLDQRIKIGDKSMIVIVILEKVNGVWRVREMHITVR | 1.37 |
| DDEDEEVKLIIEEELHLARTGDFERLLELHDPDVRIIFDGREWHGREALRWLYRHLGIDRIDLHFEDVRVINGRVEMDVTENINGRKIKSRIIARKYDGRWINEQVDIK | 2.28 |
| DEDKEFMERLARMFWHSILTGDEHRISNLADPNMKLEVDGQRFHGREEMERASKERWERLGVDHIHIEDLRVVGDKVTIHTHVDINGKEWRVDIEVKIINGKIKEIRIERHEL | 1.09 |
| DESKEAAELFIKQVERSTKTGDERLFEEFIDPHMRLEIGEFDYHGREFLHITLRDLGMEIRTFIVKDIKVQGDKARIRVEEHIQVNGVEQRRQVKYVIDKFDGRWEIHSVHFD | 0.392 |
| SEDKELAERLYHLLLRTLITGDEKQLIDNMDPDARVHVGDKHRHGMEWMNRYLHELRIRDQDDKDIRLQGNKVHVDGHVRGNINGQEIDYRFHIELITINGVVHMINIQIR | 0.945 |
| SEEDEKSHKLWEEMLEIFMTGDWKRESELADPEARRVFIVDGVNHVFHGRETITEALLRWHKEMRVHDFKLHDRRYQGEKFHVDGIVDGEYNGKKRIYEVEIIIIVVDGRVHSLEFEHK | 0.296 |
| NEEQNHAERMMRENLHNIMTGDEHKLHKLADPDARIEIGDKEIIGRELFSRILLELRFEITRVHIREITLIGDKVHVRTEEDVVIKVNGVEKRRHINSEWIFFKFNGQWLLKEVRFE | 1.34 |
| DEDDEKEKFLLELLLEALKTGDWQIFEDLADPHMKFIFNGREYHGMETFSRLMEEFLKRFPNLRIRRIEIEDHHKQGNKVELDARLYSSQGNKRLNHKMILISEKINGRWLIHSLSIE | 2.61 |
| DEDVKLALHIIHLFIRALSTGNEELVKTYADPHWRLEIGDKILHGMDEWKEDLKELRIYYHHVTFRDYEIIDGRIIIHTELDGRLEVGDYEQRIRTRTHVFVDKINGRWDITHVEVR | 1.2 |
| SEMEEESHKVVEYATHVFATGDEHLMRKNFDPDVKLDYNGKHFHGWEEFVKLMQTLREKYGVKHVKRVEIEDIRIIGNKVEVDTRVVQNVDGVPFELEITLILIKIDGKWRNHSSRIR | 0.037 |
| DEKEEEYHRILREWMHWLLTGDWDKLLNNVDPHAKLTVNGREIHGMHLAVKLLVDTMRELRFHIEVKDTKVFNGVAFVDLRLHIHIGDKEHKNRSEVTLVIIDGRIHTIVIHDR | 1.56 |
| DEEEEDAHRLMHNVVHALRTGDWEEFSRLLDPNVMVIIGDKLFIGRETVLEMIKRMLDDWGVTRIHLHIHSKHVQGNKLHVDSQIDVNGRTTRVHIDATKIDGRWLLKRIEIK | 2.14 |
| DDRERDLRELFKRLHEVLETGNEEEMTELIDPHARRTVGDKKIHGRELIAKHLVHEVLRYDHWHLEMHDWRFQGEKIELHGNFRIEVDGKQIVIDTRLTATKVDGRWRITEIRII | 0.743 |
| DEHDKLMKDIAKLLLELWKTGDEEIFQHLMDPDTRMDVNGVQLHGMELIVKILRDEIHKIKNVKVLDKRNTVIGDKIHLDVEIVIGDKRIRMKLDVIVVNGRIKVFEIHTE | 1.36 |
| DETEEMARLFNEEVRHSWKTGNEEHIKRLIDPHAKVHIGDKELHGRERATETIRKLGVKHLEIDDIHIIDGRVHVDGTLDVDGQSFRVEIILSKVNGRWLNEEIRIH | -0.344 |
| SEEEEQVTESFEHFFRARYTGDEHTLLRMMDPNVRVIVDGKDIHGWEEVIRYLVHIRIKRSELHDREIRVVNGRAIVHLDVHTDREVDGVRIETRIILILYAEKIDGRWVFKEVKIEVR | 1.29 |
| SHEEEIAREISRDLFRAFLTGDEDWLLKNLDPDARLHVSVGDKSEHFHGREEVMKFVREWRVHRIEIKELRVFNGRIHSRVHVYGEFNGQRFRTDIHENYNIVDGRIKEIHVEIR | 1.66 |
| DEDMDISKHWAELWMKLEKTGDEEELRKLMDPHARIDFNGVDIHGMEFWLELLKREKDKFKNVKITLEEFRIYGDYVHFHVIIHQGDYHLRIEITIIVVNGRHKELIIRIK | -0.059 |
| SESEDLLETLERVIRRVDETGDERDFHEMLDPDARIIIGDKIHIGREASELWFKRVDHIHHRHIHQIRVIGNKMHIDIEVDGKIGDWRFRTRVELVLVKVNGKWMVHHININ | 1.17 |
| HEEDEMAIKIVELFIHALHTGNEELLHNLLDPEVRLTVDGRRIHGRHWVLRELLHIRVHDIHWTDIDKVNGKIELHTRQDGDVDGRRHEVNVTLVVIKVDGQWILHSVMVE | 2.09 |
| HEDERLMKEALEMIIESFRTGDEHTIEELADPHARVIVGDKHHHGWHELLKRVLELGVKHVNVRDMRVIGDKLEVKLELHVGDKTFDSRLHVLKVNGKWHIQFVEIH | 1.75 |
| DEDDRIHEWSMRWLIQSLRTGDEDMLREYIDPHTRVHVNGKEEHGREAADKLAKRIDHLHHLIIRSEERQGDKIIMDIERDILIDGVRINTRVSLILLKVNGRWFMKSIHFL | 0.826 |
| SEETKEKHDFVEEWRHFLETGDEHELTRMIDPNVRVIINGQEHHGREAFEEMLKRIDVIHHVVIRKERSINGVIRLNFEVDGVINGRRHRTEFHIIVLKINGRWLIHQISIH | 2.04 |
